pIC50: −log10 of the molar value.
Experiments:
VP16 = target: T1, VP16 (Human herpesvirus 1, UniProt P06492); assay: ELISA of direct binding of VP16 to plate-coated peptides; design: species or system HSV-1; settings: wells coated with peptide up to 500 μg/ml; VP16 1.6 μg/ml; FIG. 10
T1 construct: Plasmid pETVP16 was used to express full-length VP16 under the control of the T7 RNA polymerase promoter; made in house; host or cells: E. coli BL21(DE3)
Procedure: FIG. 10 Binding of VP16 to peptides. Microtitre plates were coated with 5-fold dilutions of peptides ranging from 500 μg/ml to 1 μg/ml and blocked with PBS/10% NCS. VP16 was then added to a final concentration of 1.6 μg/ml and detected with LP1. The legend for the peptides added is shown to the right of the graph.
(§1) Dilutions of proteins in PBS were coated overnight onto flat bottomed micro-titre plates (Dynatech) at 37° C. and then blocked with either 2% BSA or 10% new-born calf serum (NCS) in PBS for 1 hour at 37° C. Specific binding of a second protein to the plate-bound protein was performed for 1.5-2 hours at ambient temperature. a Excess secondary protein was removed by washing four times with PBS, 0.3% Tween 20. Bound protein was detected by incubation for 1.5-2 hours with LP1 antibody in PBS, 1% gelatin or PBS, 2% NCS. The bound antibody was detected by incubation for 1 hour at ambient temperature with anti-mouse antibody conjugated to HRP (1:500) and visualised with Smg/ml enzyme substrate 2,2'-azino-bis(3-ethylbenzthiazoline-6-sulphonic acid) (ABTS; Sigma) in citrate-phosphate buffer containing 6 μl hydrogen peroxide in a total volume of 20 ml. Optical densities were measured on a Titertek Multiscan PLUS instrument.
To examine whether VP16 could bind directly to the peptides, wells were coated with each peptide (A-J) at a range of concentrations from […] to 500 μg/ml and the plate was then blocked with […]. […] Nonetheless, the data for peptides D and E implicate direct binding of these peptides to VP16 as the mechanism for inhibiting its interaction with VP22. Peptide H also was active in experiments which prevented gB binding to VP22trunc [Section 4 (iii)] and thus also forms an aspect of the invention.

[1] = target: T2, VP16/VP22trunc interaction (Human herpesvirus 1, UniProt P06492); assay: ELISA of peptide inhibition of VP16 binding to VP22trunc; design: species or system HSV-1; settings: for Inhibition of VP16 binding to VP22trunc in ELISA: D and E pure preparations, effect at 100 and 500 μg/ml, VP16 1.6 μg/ml, 160 ng VP22trunc, FIG. 9; for pIC50: converted from μg/ml, maximum molarities, read-out: Molarity for 50% inhibition of VP16 binding (ELISA); for pIC50 / Concentration for 50% inhibition of VP16 binding (ELISA): peptides not 100% soluble; for Concentration for 50% inhibition of VP16 binding (ELISA): pure peptide preparations, maximum values
T2 construct: Plasmid pETVP16 was used to express full-length VP16 under the control of the T7 RNA polymerase promoter; made in house; host or cells: E. coli BL21(DE3)
T2 sequence (P06492 whole entry): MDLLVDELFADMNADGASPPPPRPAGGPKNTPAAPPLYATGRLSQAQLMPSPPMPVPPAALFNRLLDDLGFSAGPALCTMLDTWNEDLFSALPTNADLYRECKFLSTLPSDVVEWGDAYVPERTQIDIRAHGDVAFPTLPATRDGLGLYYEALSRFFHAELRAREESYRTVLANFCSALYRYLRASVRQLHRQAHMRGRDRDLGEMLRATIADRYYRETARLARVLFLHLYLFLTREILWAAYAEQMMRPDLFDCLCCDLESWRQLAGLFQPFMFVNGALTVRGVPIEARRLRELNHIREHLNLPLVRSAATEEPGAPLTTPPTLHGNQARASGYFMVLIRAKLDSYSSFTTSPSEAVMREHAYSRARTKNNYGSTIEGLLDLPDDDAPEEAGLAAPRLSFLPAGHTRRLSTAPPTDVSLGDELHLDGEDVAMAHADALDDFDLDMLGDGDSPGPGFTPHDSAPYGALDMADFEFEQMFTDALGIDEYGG
Procedure: FIG. 9 Inhibitory effect of peptides D and E on the VP22trunc-VP16 interaction in ELISAs. Microtitre plates were coated with 160 ng of VP22trunc and blocked with PBS/10% NCS. Before addition to the wells, five-fold dilutions of the peptides, ranging from 500 μg/ml to 1 g/ml, were incubated with VP16 (1.6 μg/ml). Bound VP16 was detected with LP1 at a dilution of 1:1000. The legend for the peptides added is shown to the right of the graph. Values are shown relative to those obtained in the absence of the peptide.
as §1
To adopt a more quantitative approach, an ELISA for VP16 binding to VP22trunc was developed. Optimal conditions were determined by coating wells with various quantities of VP22trunc followed by blocking with 2% BSA. Plates were then incubated with dilutions of VP16 and the bound VP16 detected with LP1.
The studies presented above have provided strong evidence in support of peptide inhibition of the interaction between VP16 and VP22. However, quantitative analysis of the ability of peptides to block any interaction is difficult to perform by the above methods. Therefore, using the ELISA system described in Results Section 2(iii) with the exception that PBS/10% NCS was utilised as a blocking agent, the inhibitory effects of peptides D and E were examined. This modification arose due to nonspecific binding of the peptides to wells when BSA was used for blocking (data not shown).

[2] = target: T2, VP16/VP22trunc interaction; assay: Co-purification of VP16 with VP22trunc on Ni-NTA resin in presence of peptides; type: binding, HSV-1; settings: for Co-elution of VP16 with VP22trunc from Ni-NTA resin after incubation with peptide: crude peptide at 2 mg/ml (about 1 mM), equal volume mixed with partially purified VP16 extract before VP22trunc; for Inhibition of VP16 co-elution with VP22trunc, peptides purified to homogeneity: peptides purified by reverse phase HPLC, data not shown
Procedure: FIG. 4 Co-elution of VP16 with VP22trunc from Ni-NTA resin. Partially purified extract containing VP16 was incubated in the absence of (lane 14) or presence of […] of VP22trunc (lanes 3 to 13). In lanes 3 to 12, an equal volume of the individual peptides at 2 mg/ml was added to the extract prior to VP22trunc. Peptides added to each reaction were as follows: lane 3, peptide A; lane 4, peptide B; lane 5, peptide C; lane 6, peptide D; lane 7, peptide E; lane 8, peptide F; lane 9, peptide G; lane 10, peptide H; lane 11, peptide I; lane 12, peptide J; lane 13, no peptide. Lanes 3 to 14 show the polypeptides eluted from Ni-NTA resin. Other samples were as follows: lane 1, partially purified VP16 extract, lane 2, purified VP16; lane 15, purified VP22trunc. Samples were electrophoresed on a 12% polyacrylamide gel and the apparent molecular weights of VP16 (65 KDa) and VP22trunc (16 KDa) are shown.
Co-purification of VP16 with VP22trunc on Ni-NTA Resin. Purified VP22trunc and a partially purified extract containing VP16, both in 20 mM Tris-HCl, pH8.0, 250 mM NaCl, were mixed at 4° C. for 15 to 30 minutes on a rotator. 50 μl of equilibrated Ni-NTA resin was added to each mixture and incubation was continued at 40C for a further 15 to 30 minutes. Resin was pelleted at 800 g for 1 minute and the supernatant (non-bound fraction) was removed. Resin was washed sequentially with 0.5 ml of 20 mM Tris-HCl, pH 8.0, 250 mM NaCl, 5 mM imidazole (twice) and 0.5 ml of 20 mM Tris-HCl, pH 8.0, 250 mM NaCl, 60 mM imidazole (four times). Bound protein was eluted by addition of 50 μl of boiling mix (160 mM Tris-HCl, pH 6.7, 2% SDS, 700 mM β-mercaptoethanol, 10% glycerol, 0.002% bromophenol blue) followed by heating to 100° C. for 5 minutes. For peptide studies, peptides were dissolved in 20 mM Tris-HCl, pH8.0, 250 mM NaCl at a concentration of 2 mg/ml. Incubation of peptides with partially purified VP16 extracts was performed at ambient temperature for 2 hours prior to the addition of VP22trunc. Samples were electrophoresed on denaturing polyacrylamide gels.
Results presented in Section 2(i) had shown that VP16 co-elutes from Ni-NTA resin in the presence of VP22trunc and it was concluded that this indicated interaction between these polypeptides. The ability of synthetic peptides to inhibit this interaction was analysed by mixing them individually with the partially purified VP16 extract prior to addition of VP22trunc. From the intensity of the 65 KDa species in the crude extract (FIG. 4, lane 2), it was estimated that the concentration of VP16 was approximately […]. To ensure that experiments were performed in an excess of peptide, peptides were prepared at a concentration of 2 mg/ml (about 1 mM) and equal volumes of peptide and extract were mixed. This gave a relative molar ratio of VP16 to peptide of 1:300. However, it should be noted that certain peptides were not completely soluble (Table 1) and in those cases, the ratio would be reduced.

T1 sequence (P06492 whole entry): as above

| Sequence | Direct binding of VP16 to plate-coated peptide (ELISA) (VP16) | Inhibition of VP16 binding to VP22trunc in ELISA [1] | pIC50 [1] | Concentration for 50% inhibition of VP16 binding (ELISA) [1] [µg/mL] | Co-elution of VP16 with VP22trunc from Ni-NTA resin after incubation with peptide [2] | Inhibition of VP16 co-elution with VP22trunc, peptides purified to homogeneity [2] |
| --- | --- | --- | --- | --- | --- | --- |
| TPRVAGFNKRVFCAAVGRLA [Peptide D] | binding was found with higher concentrations | could inhibit binding of VP16 to VP22trunc | 4.00 | 212.5 | reduced amounts | inhibitory capabilities were retained |
| CAAVGRLAAMHARMAAVQLW [Peptide E] | binding was found with higher concentrations | could inhibit binding of VP16 to VP22trunc | 4.36 | 85.7 | failed to co-elute | inhibitory capabilities were retained |
| FSTAPPNPDAPWTPRVAGFN [Peptide C] | binding did not occur | neither peptides B, C nor F had any effect | – | – | – | – |
